Results from publication PMC5606208 (Nature, 2017).

Key:
SEC-MALS = molecular target: the molecule itself; assay: SEC-MALS
AUC = molecular target: the molecule itself; assay: AUC

B1: nPhos-HP1α (HP1α S92A, S95A, S97A co-expressed with CKII, phosphorylated only in the N-terminal extension) (natural protein, human, UniProt P45973 1-191, looked up)
chain: MGKKTKRTADSSSSEDEEEYVVEKVLDRRVVKGQVEYLLKWKGFSEEHNTWEPEKNLDCPELISEFMKKYKKMKEGENNKPREKSESNKRKANFANAADDIKSKKKREQSNDIARGFERGLEPEKIIGATDSCGDLMFLMKWKDTDEADLVLAKEANVKCPQIVIAFYEERLTWHAYPEDAENKEKETAKS
modifications: phosphorylated at Ser11, Ser12, Ser13, Ser14 (NTE); 8 phosphates per dimer by native MS
- stoichiometry N (SEC-MALS): 2

B2: PhosNH-α/βchimera (N-terminus and Hinge from HP1α with the Chromodomain, Chromoshadow domain and CTE from HP1β, phosphorylated) (other, human)
chain: GKKTKRTADSSSSEDEEEYVVEKVLDRRVVKGKVEYLLKWKGFSDEDNTWEPEENLDCPDLISEFMKKYKKMKEGENNKPREKSESNKRKSNFSNSADDIKSKKKREQSNDIARGFARGLEPERIIGATDSSGELMFLMKWKNSDEADLVPAKEANVKCPQVVISFYEERLTWHSYPSEDDDKKDDKN
modifications: phosphorylated NTE (fully phosphorylated, sites not given)
- binding result (AUC): binds
